Results from US9931401B2, “Combination comprising anti-fibroblast growth factor receptor 2 (FGFR2) antibody and a tyrosine kinase inhibitor” (Daiichi Sankyo Company, Limited, priority 2013, dated 2018).
Where a chain is given by its changes, count along the chain named. Entries after “also recorded” stand apart in the source; their conditions may differ. Values belong to the molecule of their own block, whether it stands above or below them.

What was measured:
human FGFR2 IIIc = molecular target: T1, human FGFR2 IIIc (Homo sapiens, UniProt P21802); assay: Elk1 luciferase reporter gene assay, FGFR2 IIIc-expressing 293α cells, ligand FGF9; format: cell-based; conditions: antibody preincubated 1 hour; FGF9 10 ng/ml, 6 hours
T1 construct: a human FGFR2 IIIc variant protein (isoform 1: NP_000132); expressed in transfected cells; host or cells: 293α cells (HEK293 stably transfected with integrin αv and β3)
Method: The Elk1 luciferase reporter gene assay was carried out using each hybridoma culture supernatant selected in Example 1)-5. A cell line 293α, which was HEK293 cells stably transfected with integrin αv and integrin β3 expression vectors, was transiently cotransfected with pcDNA-DEST40-FGFR2 IIIb or pcDNA-DEST40, pFA2-Elk1 (manufactured by Stratagene Corp.), pFR-Luc2CP, and pGL4.74[hRluc/TK] (manufactured by Promega Corp.) according to transfection procedures using Lipofectamine 2000 (manufactured by Invitrogen Corp.), inoculated to a white 96-well cell culture plate (manufactured by Corning Inc.), and cultured overnight at 37° C. under 5% CO2 conditions. On the next day, the culture supernatant was removed, and the hybridoma culture supernatant diluted 5-fold with DMEM containing 5% FBS was added at a concentration of 50 μl/well to the plate. […] The firefly/Renilla ratio was calculated to normalize data on each well.
In order to evaluate the signal-neutralizing effects of the obtained antibodies by the Elk1 luciferase reporter gene assay, 293α cells were cotransfected with pcDNA-DEST40-FGFR2 IIIb or pcDNA-DEST40-FGFR2 IIIc constructed in Example 1)-3-1, pFA2-Elk1 (manufactured by Stratagene Corp.), pFR-Luc2CP, and pGL4.74[hRluc/TK] […] The firefly/Renilla ratio was calculated to normalize data on each well. […]

[1] = test system: FGFR2, FRS2, and ERK phosphorylation in stomach cancer cell line SNU-16; assay: FGFR2 signal inhibitory effect on SNU-16 by Western blotting; format: cell-based, human; conditions: FGF7 10 ng/ml, 10 minutes
Method: The FGFR2 signal inhibitory effect of the obtained antibody was tested using a stomach cancer cell line SNU-16 endogenously expressing FGFR2. SNU-16 cells (3×10^6) suspended in an RPMI medium containing 0.1% bovine serum albumin were seeded onto a 12-well plate and incubated overnight. The rat FR2-10 antibody was added thereto, and the cells were incubated at 37° C. for 1 hour. Then, 10 ng/ml FGF7 (manufactured by R&D systems, Inc.) was added thereto, and the cells were further incubated for 10 minutes. Subsequently, the cells were lysed with an RIPA buffer (1% NP-40, 0.5% sodium deoxycholate, and 0.1% SDS in PBS) containing Complete Mini (manufactured by Roche Applied Science) and a phosphatase inhibitor (manufactured by Nacalai Tesque Inc.). The lysates were centrifuged to obtain the cell lysis solution, and the protein concentration was determined using BCA protein assay (manufactured by Pierce Biotechnology, Inc.). The lysates were resuspended in a DTT-containing buffer and denatured at 99° C. for 5 minutes. The protein (20 μg/lane) was separated by SDS-PAGE on a 5 to 20% gel. The protein was blotted onto a PVDF membrane (manufactured by Bio-Rad Laboratories, Inc.). The membrane was blocked with TBS-T (2 mM Tris, 50 mM NaCl, and 0.1% Tween-20 (pH 7.4)) containing 5% skimmed milk (MEGMILK SNOW BRAND Co., Ltd.) at room temperature for 1 hour. […]

T1 sequence (P21802 22-821): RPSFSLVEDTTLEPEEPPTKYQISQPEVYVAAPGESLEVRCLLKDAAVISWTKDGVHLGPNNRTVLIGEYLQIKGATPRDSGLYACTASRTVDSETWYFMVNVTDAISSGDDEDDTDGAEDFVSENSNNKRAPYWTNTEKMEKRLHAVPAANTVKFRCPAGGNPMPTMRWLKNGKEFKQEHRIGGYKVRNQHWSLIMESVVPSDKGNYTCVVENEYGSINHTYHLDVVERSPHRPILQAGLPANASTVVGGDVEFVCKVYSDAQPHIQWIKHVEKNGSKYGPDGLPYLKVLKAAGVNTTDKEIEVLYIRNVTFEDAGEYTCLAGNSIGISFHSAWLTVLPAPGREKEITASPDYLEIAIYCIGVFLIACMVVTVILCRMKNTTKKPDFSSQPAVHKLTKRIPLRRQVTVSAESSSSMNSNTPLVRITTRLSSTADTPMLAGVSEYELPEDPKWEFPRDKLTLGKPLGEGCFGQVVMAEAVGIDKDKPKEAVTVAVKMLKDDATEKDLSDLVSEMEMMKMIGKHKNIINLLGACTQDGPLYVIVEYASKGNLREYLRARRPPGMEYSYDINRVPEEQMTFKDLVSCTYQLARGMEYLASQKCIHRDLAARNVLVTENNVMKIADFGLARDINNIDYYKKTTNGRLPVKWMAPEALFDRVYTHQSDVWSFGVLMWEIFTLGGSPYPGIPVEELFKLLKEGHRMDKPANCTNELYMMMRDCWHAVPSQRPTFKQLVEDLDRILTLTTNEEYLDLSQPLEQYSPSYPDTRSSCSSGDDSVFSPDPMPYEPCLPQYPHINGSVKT

ligand FGF9 dependent reporter activation in the FGFR2 IIIc-expressing cells (human FGFR2 IIIc): inhibited
B1: FR2-13: anti-human FGFR2 rat monoclonal antibody obtained by the method described in Example 1; VH SEQ ID NO: 14, VL SEQ ID NO: 24 (antibody, listed as Rattus norvegicus, V domains shown)
VH: QVKLLQSGAELVKPGASVKLSCKTSGFTFSTSYMSWLKQVPGPSIEWIGWIYAGDGGTKYNQKFKGKATLTVDKSSSTAYMDLSSLTSEDAAVYFCATDGYGDWFAYWGQGTLVTVSS
VL: DIQMTQSPASLSASLGETVTIECRASEDIYSNLAWYQQKPGNSPQLLIYDANILADGVPSRFSGSGSGTQYSLKINSLQSEDVASYFCQQYNNYPPFTFGVGTKLELKRA

ligand FGF9 dependent reporter activation in the FGFR2 IIIc-expressing cells (human FGFR2 IIIc): inhibited
B2: FR2-14: anti-human FGFR2 rat monoclonal antibody obtained by the method described in Example 1; VH SEQ ID NO: 16, VL SEQ ID NO: 26 (antibody, listed as Rattus norvegicus, V domains shown)
VH: B1 VH with I45T, S75F, A106T
VL: B1 VL with V101A

B3: FR2-10: anti-human FGFR2 rat monoclonal antibody obtained by the method described in Example 1; VH SEQ ID NO: 12, VL SEQ ID NO: 21 (antibody, listed as Rattus norvegicus, V domains shown)
VH: EVQLVESGGGLVQPGRSLKLSCVASGFRFNDFWMTWIRQAPGKGLEWVASITYTGDNTYYAGSVKGRITISRDNAKSTLYLQMNSLRSEDTATYYCTRDDYGGYSPYYMDAWGQGTSVTVSS
VL: DIQMTQSPSSLSAFLGDRVTITCRASQDIGNYLRWFQQKPGKSPRLMIYGATNLANGVPSRFSGSRSGSDYSLTINNLESEDMAIYYCLKHNEYPFTFGSGTKLEIKRA
phosphorylation of FGFR2, FRS2, and ERK induced by FGF7 [1]: inhibited FGFR2, FRS2, and ERK phosphorylation; also recorded: inhibited the increase in the phosphorylation of these molecules in a concentration dependent manner
